Test results as given in patent publication US20250154277A1 (CONCEPT TO MEDICINE BIOTECH, published 2025).
Residue numbers refer to the chain shown, from its start. Names may count otherwise.

B1: 286B4 chimeric antibody (antibody, V domains shown)
VH: DVQLHESGPGLVKPSQSLSLTCSVTGYSITNNYYWNWIRQFPGNNLEWMGYITYDGSNNYNPSLKNRISVTRDTSKNQFFLKLSSVTTEDTATYYCTRGGGQLRFDYWGQGTTLTVSS
VL: SIVMTQTPKFLIVSAGDRVTITCKASQSVSNEVTWYQQKPGQSPKMLIYYASNRYTGVPDRFTGSGYGTDFTFTINTVQAEDLAIYFCQQDYSSPWTFGGGTKLEIK
notes: chimeric mAb; also called 284B4-C
B2: Hu159D5-2 (antibody, V domains shown)
VH: EVQLVESGGGVVQPGRSLRLSCAASGFTFSNFGMHWVRQAPGKGLEWVAYISSGSSTFYYADSVKGRFTISRDNSKNTLYLQMNSLRAEDTAVYYCARSPAYYRYGLDYWGQGTTVTVSS
VL: DIVMTQTPLSLSVTPGQPASISCRASQSVSSSTFSYMHWYQQKPGQPPQLLIKSSSNLESGVPDRFSGSGSGTDFTLKISRVEAEDVGVYYCQHSWEIPYTFGGGTKVEIK
notes: humanized
B3: Hu159D5-5 (antibody, V domains shown)
VH: B2 VH
VL: DIVMTQSPDSLAVSLGERATINCRASQSVSSSTFSYMHWYQQKPGQPPKLLIKSSSNLESGVPDRFSGSGSGTDFTLTISSLQAEDVAVYYCQHSWEIPYTFGGGTKVEIK
notes: humanized
B4: Hu159D5-6 (antibody, V domains shown)
VH: B2 VH
VL: B3 VL with M4L
notes: humanized
B5: Hu159D5-1 (antibody, V domains shown)
VH: B2 VH
VL: B2 VL with K53Y
notes: humanized
B6: Hu159D5-9 (antibody, V domains shown)
VH: B2 VH with Y95F
VL: B2 VL with M4L
notes: humanized
B7: Hu159D5-8 (antibody, V domains shown)
VH: B2 VH with Y95F
VL: B2 VL
notes: humanized
B8: Hu159D5-3 (antibody, V domains shown)
VH: B2 VH
VL: B2 VL with M4L
notes: humanized
B9: Hu159D5-7 (antibody, V domains shown)
VH: B2 VH with Y95F
VL: B2 VL with K53Y
notes: humanized
B10: Hu159D5-4 (antibody, V domains shown)
VH: B2 VH
VL: B3 VL with K53Y
notes: humanized
B11: 159D5-P1 (antibody, V domains shown)
VH: DVQLVESGGGLVQPGGSRKLSCTASGFTFSNFGMHWVRQAPETGLEWVAYISSGSSTFYYADAVKGRFTISRDNPKNTLFLQMTSLRSEDTAMYFCARSPAYYRYGLDYWGQGTTLTVSS
VL: DIVLTQSPASLAVSLGQRATISCRASQSVSSSTFSYMHWYQQKPGQPPKLLIKSSSNLESGVPARFSGSGSGTDFTLNIHPVEEEDTATYYCQHSWEIPYTFGGGTKLEIK
notes: chimeric 159D5 with S62A (DS to DA) in VH CDR2; also called PTM removal antibody of 159D5-P1; 159D5-VH.S62A with 159D5 VL
B12: 119G5 chimeric antibody (antibody, V domains shown)
VH: QVQLQQSGPEVVKPGASVKISCKASGYTFTDYYMNWVKQSRGKSLEWIGDINPNNGGTNYNQKFKGKATLTVDKSSSTAYMELRSLTSEDSAVYYCAKEGPPGAMDYWGQGTSVTVSS
VL: NIVMTQTPKFLLVSAGDRVTITCKASQSVSNHVAWYQQKPGQSPKLLIYYVSNRSIGVPDRFTGSGYGTDFTFTISTVQAEDLAVYFCQQVYSSPFTFGGGTRLEMK
notes: chimeric mAb
B13: 85B10 chimeric antibody (antibody, V domains shown)
VH: B12 VH with V11L, D31A, M34V, R41H, K74M
VL: B12 VL with N1S, M4L, T20P, H32N, V51A, R54P, S55Y, I56T, S76T, R103K
notes: chimeric mAb
B14: 95F10 chimeric antibody (antibody, V domains shown)
VH: B12 VH with K13N, G66D, S77N, D90N
VL: B12 VL with S55Y
notes: chimeric mAb
B15: 49C5 chimeric antibody (antibody, V domains shown)
VH: EVQLQQSGPELVKPGASVKISCKASGYTFTDYYMNWVKQSHGKSLEWIGDINPYSGGATNNQKFKGKATLTVDKSSSTAYIELRSLTSEDSAVYFCARGSIYYDSTANYFDYWGQGTTLTVSS
VL: DIQMTQSPASLSASVGETVTITCRASENIYSYLAWYQQKQGKSPQLLVYNAKSLTEGVPSRFSGSRSGTQFSLKINSLQPEDFGSYYCQHHYVTPWTFGGGTKLEIK
notes: chimeric mAb

Target: T1, human 5T4-His protein (human, UniProt Q13641 32-355)
T1 construct: also called recombinant 5T4 protein (human 5T4-his tag); human 5T4 protein; not shown: His tag
T1 sequence (looked up): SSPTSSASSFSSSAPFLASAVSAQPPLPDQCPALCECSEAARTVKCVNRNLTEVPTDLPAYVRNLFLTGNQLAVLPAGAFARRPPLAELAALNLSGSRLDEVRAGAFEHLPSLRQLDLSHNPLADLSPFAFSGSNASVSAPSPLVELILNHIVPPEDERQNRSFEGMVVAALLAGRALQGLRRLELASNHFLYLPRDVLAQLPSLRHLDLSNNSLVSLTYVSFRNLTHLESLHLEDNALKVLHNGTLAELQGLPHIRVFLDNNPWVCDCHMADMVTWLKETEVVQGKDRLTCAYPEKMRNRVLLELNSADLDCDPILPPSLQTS
Assay: ELISA, coated 5T4-His
Experimental: To evaluate the binding activity of clones, the 286B4 chimeric antibody along with 286B4 humanized mAbs were subjected to ELISA test.
Briefly, microtiter plates were coated with human 5T4-His protein at 1 μg/ml in PBS, 100 μl/well at 4° C. overnight, then blocked with 150 μl/well of 1% BSA. 4-fold dilutions of tested antibodies starting from 20 nM were added to each well and incubated for 1 hour at 37° C. The plates were washed with PBS/Tween and then incubated with Goat Anti-Human IgG-HRP for 30 mins at 37° C. After washing, the plates were developed with TMB substrate and analyzed by spectrophotometer at OD 450 nm. As shown in FIG. 16 and Table 15, most of the humanized clones bound to human 5T4 with high potency.

For B1, which EC50 is on record?
Its EC50 is 320 pM.

Target: T1, human 5T4-His protein
Assay: SPR Biacore, Protein A capture
Experimental: (§1) The binding of the 286B4 humanized antibodies to recombinant 5T4 protein (human 5T4-his tag) was tested with Biacore using a capture method. The mAbs were captured using Protein A chip. A serial dilution of human 5T4-his tag protein was injected over captured antibody for 3 mins at a flow rate of 30 μl/min. The antigen was allowed to dissociate for 280-800 s. All the experiments were carried out on a Biacore T200. Data analysis was carried out using the Biacore T200 evaluation software.

Which results are given for B1?
Kd: 1250 pM; koff: 0.000113 s⁻¹; kon: 90900 M⁻¹ s⁻¹

Target: T1, human 5T4-His protein
Assay: ELISA, coated 5T4-His
Remark: another data set of the same source
Experimental: To evaluate the binding activity of 159D5 humanized antibodies to human 5T4, the 159D5 chimeric antibody along with 159D5 humanized mAbs were subjected to ELISA test.
Briefly, microtiter plates were coated with human 5T4-His protein at 1 μg/ml in PBS, 100 μl/well at 4° C. overnight, then blocked with 150 μl/well of 10% BSA. Serial dilutions of antibodies were added to each well and incubated for 1 hour at 37° C. The plates were washed with PBS/Tween and then incubated with Goat Anti-Human IgG-HRP for 30 mins at 37° C. After washing, the plates were developed with TMB substrate and analyzed by spectrophotometer at OD 450 nm. As shown in FIG. 14 and Table 12, most of the humanized antibodies bound to human 5T4 with high activity.

How did the EC50 turn out when B2 was run?
Its EC50 is 120 pM.

Which EC50 does the source give for B3 here?
The EC50 was 99 pM.

B4 was tested. Which EC50 did it give?
Its EC50 is 100 pM.

Which EC50 does the source give for B5 here?
The EC50 was 88 pM.

Which EC50 does the source give for B6 here?
Its EC50 is 140 pM.

For B7, which EC50 is on record?
Its EC50 is 150 pM.

How did the EC50 turn out when B8 was run?
Its EC50 is 120 pM.

B9 was tested. Which EC50 did it give?
The EC50 was 97 pM.

With B10 as the binder, how does the EC50 read?
Its EC50 is 94 pM.

Which EC50 does the source give for B11 here?
The EC50 was 130 pM.

Target: T2, cynomolgus 5T4 protein (cynomolgus monkey, UniProt Q4R8Y9 35-355, limits assumed)
T2 construct: Coated protein in ELISA; the screening step names a cyno 5T4-His protein; also called cyno 5T4; recombinant cyno 5T4-His protein
T2 sequence (looked up): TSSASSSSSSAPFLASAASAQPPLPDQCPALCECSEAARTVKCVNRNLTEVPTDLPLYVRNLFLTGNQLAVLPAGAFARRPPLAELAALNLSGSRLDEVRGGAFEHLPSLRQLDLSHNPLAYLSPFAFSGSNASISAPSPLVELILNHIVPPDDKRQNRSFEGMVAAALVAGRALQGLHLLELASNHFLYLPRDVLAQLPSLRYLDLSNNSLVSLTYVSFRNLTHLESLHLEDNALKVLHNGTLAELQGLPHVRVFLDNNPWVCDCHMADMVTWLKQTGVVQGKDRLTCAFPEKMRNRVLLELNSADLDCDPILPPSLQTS
Assay: ELISA, coated antigen
Experimental: (§2) ELISA testing was carried out to evaluate the binding of chimeric antibodies to human and cynomolgus, respectively. The antibody portion of naptumomab (NeoTX) that targets 5T4 (abbreviated as naptumomab in the present disclosure), was generated and used as a benchmark.
(§3) Briefly, microtiter plates were coated with human and cynomolgus 5T4 proteins at […] in PBS, 100 μl/well at 4° C. overnight, then blocked with 150 μl/well of 1% BSA. Serial dilutions of chimeric antibodies were added to each well and incubated for 1 hour at RT. The plates were washed with PBS/Tween and then incubate with mouse-anti-human IgG Fc antibody conjugated with Horse Radish Peroxidase (HRP) for 30 mins at RT. After washing, the plates were developed with TMB substrate and analyzed by spectrophotometer at OD 450 nm. All the 5T4 chimeric mAbs bound to human and cynomolgus 5T4 (FIG. 1-2 and Table 3).

How did the EC50 turn out when B1 was run?
The EC50 was 220 pM.

How did the EC50 turn out when B12 was run?
Its EC50 is 200 pM.

With B13 as the binder, how does the EC50 read?
Its EC50 is 170 pM.

For B14, which EC50 is on record?
Its EC50 is 170 pM.

With B15 as the binder, how does the EC50 read?
Its EC50 is 180 pM.

Target: T1, human 5T4-His protein
Assay: ELISA, coated antigen
Experimental: as §2, §3

Which EC50 does the source give for B1 here?
Its EC50 is 350 pM.

With B12 as the binder, how does the EC50 read?
The EC50 was 320 pM.

For B13, which EC50 is on record?
The EC50 was 340 pM.

With B14 as the binder, how does the EC50 read?
Its EC50 is 240 pM.

How did the EC50 turn out when B15 was run?
The EC50 was 600 pM.

Target: T1, human 5T4-His protein
Assay: SPR Biacore, Protein A capture
Remark: another data set of the same source
Experimental: as §1, with “the chimeric mAbs from these clones against” for “the 286B4 humanized antibodies to”, “for 2-3” for “for 3”, “for 360-1000” for “for 280-800”, “using” for “using the”

For B1, which Kd is on record?
The Kd was 960 pM.

What about the koff of the same binder?
The koff was 6.99e-05 s⁻¹.

What about the kon of the same binder?
Its kon is 72800 M⁻¹ s⁻¹.

With B12 as the binder, how does the Kd read?
The Kd was 1220 pM.

What about the koff of the same binder?
Its koff is 0.000159 s⁻¹.

And the kon?
The kon was 130000 M⁻¹ s⁻¹.

B13 was tested. Which Kd did it give?
The Kd was 792 pM.

And the koff?
Its koff is 0.000125 s⁻¹.

What about the kon of the same binder?
Its kon is 158000 M⁻¹ s⁻¹.

How did the Kd turn out when B14 was run?
The Kd was 337 pM.

And the koff?
Its koff is 0.00012 s⁻¹.

What about the kon of the same binder?
The kon was 355000 M⁻¹ s⁻¹.

With B15 as the binder, how does the Kd read?
The Kd was 620 pM.

What about the koff of the same binder?
The koff was 0.000337 s⁻¹.

What about the kon of the same binder?
Its kon is 544000 M⁻¹ s⁻¹.

Target: T1, human 5T4-His protein
Assay: SPR Biacore, Protein A capture, 50 nM 5T4-His
Experimental: as §1, with “159D5” for “286B4”, “50 nM” for “A serial dilution”, “600” for “280-800”

For B2, which Kd is on record?
The Kd was 789 pM.

What about the koff of the same binder?
Its koff is 0.000227 s⁻¹.

What about the kon of the same binder?
Its kon is 287000 M⁻¹ s⁻¹.

How did the Kd turn out when B3 was run?
The Kd was 10100 pM.

And the koff?
Its koff is 0.000561 s⁻¹.

What about the kon of the same binder?
Its kon is 55600 M⁻¹ s⁻¹.

Which results are given for B4?
Kd: 710 pM; koff: 0.000179 s⁻¹; kon: 252000 M⁻¹ s⁻¹

For B5, which Kd is on record?
Its Kd is 3990 pM.

And the koff?
Its koff is 0.000294 s⁻¹.

And the kon?
Its kon is 73700 M⁻¹ s⁻¹.

With B6 as the binder, how does the Kd read?
Its Kd is 747 pM.

What about the koff of the same binder?
The koff was 0.000221 s⁻¹.

And the kon?
Its kon is 295000 M⁻¹ s⁻¹.

B7 was tested. Which Kd did it give?
Its Kd is 4190 pM.

And the koff?
The koff was 0.000352 s⁻¹.

What about the kon of the same binder?
The kon was 84000 M⁻¹ s⁻¹.

Which results are given for B8?
Kd: 1020 pM; koff: 0.00024 s⁻¹; kon: 235000 M⁻¹ s⁻¹

B9 was tested. Which Kd did it give?
The Kd was 1140 pM.

What about the koff of the same binder?
The koff was 0.000253 s⁻¹.

What about the kon of the same binder?
The kon was 221000 M⁻¹ s⁻¹.

With B10 as the binder, how does the Kd read?
Its Kd is 7070 pM.

And the koff?
The koff was 0.000426 s⁻¹.

And the kon?
Its kon is 60200 M⁻¹ s⁻¹.

Which results are given for B11?
Kd: 489 pM; koff: 0.000163 s⁻¹; kon: 334000 M⁻¹ s⁻¹
